In US20200270321A1 one finds Kd, human CD19 binding after pH 6.0 incubation [%] and human CD19 binding after pH 7.4 incubation [%] data, which are given here for 1 molecule.

One may read the Kd as a measure of binding affinity in units of concentration. High values mean lower affinity, low ones higher affinity.

For assay [1], the target named is human CD19 (as in Table 11) (human) (UniProt P15391). Description: BIAcore (SPR); format not stated. (In SPR one partner is held on a chip, and binding of the other changes the refractive index at the surface.)
The target is the same in assay [2]. In words: binding to human CD19 after incubation at pH 6.0; method not stated.
The target is the same in assay [3]. In words: binding to human CD19 after incubation at pH 7.4; method not stated.

B1: wild-type humanized anti-human CD19 antibody 8B8 (antibody, V domains shown)
VH: QVQLVQSGAEVKKPGASVKVSCKASGYTFTDYIMHWVRQAPGQGLEWMGYINPYNDGSKYTEKFNGRVTMTSDTSISTAYMELSRLRSDDTAVYYCARGTYYYGSALFDYWGQGTTVTVSS
VL: DIVMTQTPLSLSVTPGQPASISCKSSQSLENSNGNTYLNWYLQKPGQSPQLLIYRVSKRFSGVPDRFSGSGSGTDFTLKISRVEAEDVGVYYCLQLTHVPYTFGQGTKLEIK
Consider B1, for which the dissociation constant (Kd) in assay [1] amounted to 5 nM. Moreover, in assay [2], the human CD19 binding after pH 6.0 incubation [%] came out at 90%. The human CD19 binding after pH 7.4 incubation [%] in assay [3] is 46%.
